# Paper PMC4731831, “Better than Nature: Nicotinamide Biomimetics That Outperform Natural Coenzymes” (Journal of the American Chemical Society, 2016)
# Substrate: NC(=O)C1=CN([C@@H]2O[C@H](COP(=O)(O)OP(=O)(O)OC[C@H]3O[C@@H](n4cnc5c(N)ncnc54)[C@H](OP(=O)(O)O)[C@@H]3O)[C@@H](O)[C@H]2O)C=CC1
# Experiment: purified protein
# Details: reduction of cinnamaldehyde; varied: cofactor
protein,measurement,value
NtDBR (Nicotiana tabacum) (protein) MAEEVSNKQVILKNYVTGYPKESDMEIKNVTIKLKVPEGSNDVVVKNLYLSCDPYMRSRMRKIEGSYVESFAPGSPITGYGVAKVLESGDPKFQKGDLVWGMTGWEEYSIITPTQTLFKIHDKDVPLSYYTGILGMPGMTAYAGFHEVCSPKKGETVFVSAASGAVGQLVGQFAKMLGCYVVGSAGSKEKVDLLKSKFGFDEAFNYKEEQDLSAALKRYFPDGIDIYFENVGGKMLDAVLVNMKLYGRIAVCGMISQYNLEQTEGVHNLFCLITKRIRMEGFLVFDYYHLYPKYLEMVIPQIKAGKVVYVEDVAHGLESAPTALVGLFSGRNIGKQVVMVSRE,Km,91 µM
same,kcat,40 min^–1
